The text below walks through data of PMC7608686, “The interaction of DNA repair factors ASCC2 and ASCC3 is affected by somatic cancer mutations” (Nature Communications, 2020).

First the molecules themselves.
T1: Full-length ASCC2 (ASCC2^FL) (human, UniProt Q9H1I8 1-757)
T1 construct: from a synthetic gene (GeneArt); TEV-cleavable tag; source: insect cells (High Five), recombinant, purified (Ni-NTA, SEC); not shown: His10, N-terminal, cleaved
T1 sequence (looked up): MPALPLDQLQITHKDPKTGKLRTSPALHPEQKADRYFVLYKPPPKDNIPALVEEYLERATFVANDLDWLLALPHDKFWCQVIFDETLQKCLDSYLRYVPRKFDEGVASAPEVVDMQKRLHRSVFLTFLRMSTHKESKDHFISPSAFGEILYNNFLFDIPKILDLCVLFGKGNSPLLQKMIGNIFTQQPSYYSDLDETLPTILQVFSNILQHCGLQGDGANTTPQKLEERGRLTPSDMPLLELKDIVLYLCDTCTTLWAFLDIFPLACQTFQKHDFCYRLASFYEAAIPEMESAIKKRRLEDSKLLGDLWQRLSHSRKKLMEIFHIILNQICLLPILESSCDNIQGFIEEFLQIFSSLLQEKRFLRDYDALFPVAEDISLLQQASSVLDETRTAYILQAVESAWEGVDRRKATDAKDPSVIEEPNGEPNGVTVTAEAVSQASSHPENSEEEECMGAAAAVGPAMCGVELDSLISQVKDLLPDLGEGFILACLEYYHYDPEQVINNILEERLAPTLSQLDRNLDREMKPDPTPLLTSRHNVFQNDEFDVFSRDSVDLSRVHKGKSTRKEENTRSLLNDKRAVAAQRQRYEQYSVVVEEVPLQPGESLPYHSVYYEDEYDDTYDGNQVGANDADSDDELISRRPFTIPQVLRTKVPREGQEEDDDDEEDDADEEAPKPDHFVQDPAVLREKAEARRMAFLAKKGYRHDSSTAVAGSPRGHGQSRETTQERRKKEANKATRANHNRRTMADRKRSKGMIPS

T2: ASCC2^1-434 (human, UniProt Q9H1I8 1-434)
T2 chain: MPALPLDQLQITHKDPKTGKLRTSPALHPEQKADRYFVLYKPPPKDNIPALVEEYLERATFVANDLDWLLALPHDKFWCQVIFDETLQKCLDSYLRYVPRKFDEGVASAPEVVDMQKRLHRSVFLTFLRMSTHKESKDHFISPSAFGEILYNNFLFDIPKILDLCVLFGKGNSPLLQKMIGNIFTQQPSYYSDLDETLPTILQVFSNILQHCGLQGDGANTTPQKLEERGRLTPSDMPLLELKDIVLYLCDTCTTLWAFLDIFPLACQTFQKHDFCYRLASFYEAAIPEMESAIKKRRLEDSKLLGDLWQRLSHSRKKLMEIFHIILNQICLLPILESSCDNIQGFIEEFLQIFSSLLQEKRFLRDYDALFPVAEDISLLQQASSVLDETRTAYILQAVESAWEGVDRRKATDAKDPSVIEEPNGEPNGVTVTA

T3: ASCC3^1-22 peptide R5G (human, UniProt Q8N3C0 1-22, R5G, C-terminal amination)
T3 construct: ASCC3, human, N-terminal 22 residues with the somatic cancer substitution R5G; source: synthetic peptide (GL biochem)
T3 peptide (looked up): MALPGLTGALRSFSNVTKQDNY

T4: ASCC3^1-22 peptide R5H (human, UniProt Q8N3C0 1-22, R5H, C-terminal amination)
T4 construct: ASCC3, human, N-terminal 22 residues with the somatic cancer substitution R5H; source: synthetic peptide (GL biochem)
T4 peptide (looked up): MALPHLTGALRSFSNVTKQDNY

T5: ASCC3^1-22 peptide R5C (human, UniProt Q8N3C0 1-22, R5C, C-terminal amination)
T5 construct: ASCC3, human, N-terminal 22 residues with the somatic cancer substitution R5C; source: synthetic peptide (GL biochem)
T5 peptide (looked up): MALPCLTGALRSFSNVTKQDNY

T6: ASCC3^1-22 peptide R5L (human, UniProt Q8N3C0 1-22, R5L, C-terminal amination)
T6 construct: ASCC3, human, N-terminal 22 residues with the somatic cancer substitution R5L; source: synthetic peptide (GL biochem)
T6 peptide (looked up): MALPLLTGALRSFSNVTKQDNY

T7: ASCC2^1-434, elastase fragment of ASCC2^FL (human, UniProt Q9H1I8 1-434)
T7 construct: Proteolytic fragment; also called approximately 50 kDa fragment of ASCC2; source: elastase digestion of the purified ASCC2^FL-ASCC3^NTR complex (proteins from insect cells); not shown: His10, N-terminal, cleaved
T7 sequence (looked up): T2 chain

T8: Seleno-methionine (SeMet)-derivatized ASCC2^1-434 (human, UniProt Q9H1I8 1-434, seleno-methionine (SeMet) in place of methionine)
T8 construct: Unmodified complex (co-produced in High Five cells) was crystallized too; the structure was solved by SAD with the SeMet complex; source: E. coli BL21 (DE3), PASM-5052 medium with SeMet, purified (Ni-NTA, SEC); not shown: His6, N-terminal, cleaved
T8 sequence (looked up): T2 chain

B1: ASCC3 N-terminal region (ASCC3^NTR; residues 1-400) (domain or fragment, human, UniProt Q8N3C0 1-400, looked up)
chain: MALPRLTGALRSFSNVTKQDNYNEEVADLKIKRSKLHEQVLDLGLTWKKIIKFLNEKLEKSKMQSINEDLKDILHAAKQIVGTDNGREAIESGAAFLFMTFHLKDSVGHKETKAIKQMFGPFPSSSATAACNATNRIISHFSQDDLTALVQMTEKEHGDRVFFGKNLAFSFDMHDLDHFDELPINGETQKTISLDYKKFLNEHLQEACTPELKPVEKTNGSFLWCEVEKYLNSTLKEMTEVPRVEDLCCTLYDMLASIKSGDELQDELFELLGPEGLELIEKLLQNRITIVDRFLNSSNDHRFQALQDNCKKILGENAKPNYGCQVTIQSEQEKQLMKQYRREEKRIARREKKAGEDLEVSEGLMCFDPKELRIQREQALLNARSVPILSRQRDADVEKI
notes: ASCC3, human, N-terminal region, residues 1-400; The results say insect cells; source: insect cells, recombinant, purified (Ni-NTA; SEC step omitted); not shown: His10, N-terminal, cleaved
B2: ASCC3^16-197 (domain or fragment, human, UniProt Q8N3C0 16-197, looked up)
chain: VTKQDNYNEEVADLKIKRSKLHEQVLDLGLTWKKIIKFLNEKLEKSKMQSINEDLKDILHAAKQIVGTDNGREAIESGAAFLFMTFHLKDSVGHKETKAIKQMFGPFPSSSATAACNATNRIISHFSQDDLTALVQMTEKEHGDRVFFGKNLAFSFDMHDLDHFDELPINGETQKTISLDYK
notes: also called partial N-arm deletion variant; source: E. coli BL21 (DE3), purified (Ni-NTA, SEC); not shown: His6, N-terminal, cleaved
B3: ASCC3^1-22 peptide, wild type (peptide, UniProt Q8N3C0 1-22, looked up)
peptide: MALPRLTGALRSFSNVTKQDNY-NH2
notes: ASCC3, human, N-terminal 22 residues; also called WT ASCC3^1-22; source: synthetic peptide (GL biochem)
B4: ASCC2^1-434 (domain or fragment, human, UniProt Q9H1I8 1-434, looked up)
chain: T2 chain
notes: source: E. coli BL21 (DE3), purified (Ni-NTA, SEC); not shown: His6, N-terminal, cleaved
B5: ASCC3^1-207, elastase fragment of ASCC3^NTR (domain or fragment, human, UniProt Q8N3C0 1-207, looked up)
chain: MALPRLTGALRSFSNVTKQDNYNEEVADLKIKRSKLHEQVLDLGLTWKKIIKFLNEKLEKSKMQSINEDLKDILHAAKQIVGTDNGREAIESGAAFLFMTFHLKDSVGHKETKAIKQMFGPFPSSSATAACNATNRIISHFSQDDLTALVQMTEKEHGDRVFFGKNLAFSFDMHDLDHFDELPINGETQKTISLDYKKFLNEHLQEA
notes: ASCC3, human, N-terminal 207 residues, mapped by mass spectrometric fingerprinting; Proteolytic fragment; also called N-terminal, 207-residue fragment of ASCC3; source: elastase digestion of the purified ASCC2^FL-ASCC3^NTR complex (proteins from insect cells); not shown: His10, N-terminal, cleaved
B6: ASCC3^1-207 (domain or fragment, human, UniProt Q8N3C0 1-207, looked up)
chain: B5 chain
notes: ASCC3, human, residues 1-207; residues 1-186 traced in the model; source: insect cells, recombinant, purified (Ni-NTA, SEC); not shown: His10, N-terminal, cleaved
B7: ASCC3^1-197 (domain or fragment, human, UniProt Q8N3C0 1-197, looked up)
chain: MALPRLTGALRSFSNVTKQDNYNEEVADLKIKRSKLHEQVLDLGLTWKKIIKFLNEKLEKSKMQSINEDLKDILHAAKQIVGTDNGREAIESGAAFLFMTFHLKDSVGHKETKAIKQMFGPFPSSSATAACNATNRIISHFSQDDLTALVQMTEKEHGDRVFFGKNLAFSFDMHDLDHFDELPINGETQKTISLDYK
notes: as for B4
B8: ASCC3^1-161 (domain or fragment, human, UniProt Q8N3C0 1-161, looked up)
chain: MALPRLTGALRSFSNVTKQDNYNEEVADLKIKRSKLHEQVLDLGLTWKKIIKFLNEKLEKSKMQSINEDLKDILHAAKQIVGTDNGREAIESGAAFLFMTFHLKDSVGHKETKAIKQMFGPFPSSSATAACNATNRIISHFSQDDLTALVQMTEKEHGDRV
notes: ASCC3, human, residues 1-161 (lacks the C-arm); source: E. coli BL21 (DE3), purified (Ni-NTA, SEC); not shown: His6, N-terminal, cleaved

Ends that are not written are not given here. Where only a bound is given, the exact number is not on record here.

For experiment [1], the target named is T1, Full-length ASCC2 (ASCC2^FL). The experiment is described as follows: ITC; iTC200; ASCC3 variant (10 µM) in the sample cell, ASCC2 variant (100 µM) in the syringe; 20 mM HEPES-NaOH, pH 7.5, 100 mM NaCl; 25 °C; stoichiometry fixed to 1. The settings on record: both partners purified. A general note: ITC needs no label: the signal is the heat of the interaction.

For experiment [2], the target named is T2, ASCC2^1-434. The experiment can be described thus: ITC.
Experiment [3] addresses B4. The experiment can be described thus: ITC; iTC200; ASCC3 variant (10 µM) in the sample cell, ASCC2 variant (100 µM) in the syringe; 20 mM HEPES-NaOH, pH 7.5, 100 mM NaCl; 25 °C; stoichiometry fixed to 1. As to conditions: both partners purified.
The target of experiment [4] is B4. The experiment is described as follows: ITC; iTC200; ASCC3^1-22 peptide (10-15 µM) in the sample cell, ASCC2^1-434 (200 µM or 400 µM) in the syringe; 20 mM HEPES-NaOH, pH 7.5, 100 mM NaCl; 25 °C; stoichiometry fixed to 1. The settings on record: both partners purified.
In a further experiment the target is T3, ASCC3^1-22 peptide R5G. The description is as above. The settings on record: both partners purified.
Another experiment deals with T4, ASCC3^1-22 peptide R5H. Described as above. As to conditions: both partners purified.
The target of a further experiment is T5, ASCC3^1-22 peptide R5C. The experiment is described as above. The settings on record: both partners purified.
Another experiment concerns the target T6, ASCC3^1-22 peptide R5L. The description is as above. The settings on record: both partners purified.
The target of experiment [5] is T7, ASCC2^1-434, elastase fragment of …. The experiment is described as follows: SEC; SEC of the fragments left after elastase digestion of the ASCC2^FL-ASCC3^NTR complex. As to conditions: both partners purified.
In experiment [6] the target is T8, Seleno-methionine (SeMet)-derivatized …. The experiment is described as follows: crystal structure; SeMet SAD, 2.7 Å; complex reconstituted by SEC from SeMet ASCC2^1-434 (E. coli) and ASCC3^1-207 (insect cells); hanging drop, 4 °C, 0.1 M MES-NaOH, pH 6.5. As to conditions: both partners purified. For orientation: In gel filtration, larger molecules generally elute earlier.

As to B1, in experiment [1], binding was characterised by a dissociation constant (Kd) of 3.5 nM.

With MALPHLTGALRSFSNVTKQDNY-NH2 [ASCC3^1-22 peptide R5H], binding with ASCC2^1-434 [2] was put at a Kd of 43800 nM. In other words, the double-digit micromolar range.

For B2, in the experiment with ASCC2^1-434 [3], the Kd (usually the free concentration of one partner at which half of the binding sites on the other are occupied at equilibrium, for simple one-to-one binding) stood at 483 nM.

With MALPCLTGALRSFSNVTKQDNY-NH2 [ASCC3^1-22 peptide R5C], in the experiment with ASCC2^1-434 [2], binding was characterised by a dissociation constant (Kd) of 46500 nM.

In the case of MALPLLTGALRSFSNVTKQDNY-NH2 [ASCC3^1-22 peptide R5L], the Kd with ASCC2^1-434 [2] was 15400 nM. This Kd is about 3-fold lower than that of the molecule before.

As to B3, in the experiment with ASCC2^1-434 [4], the Kd is 2000 nM. That is a single-digit micromolar value.

With MALPGLTGALRSFSNVTKQDNY-NH2 [ASCC3^1-22 peptide R5G], in the experiment with ASCC2^1-434 [2], the Kd turned out to be 21600 nM.

Consider B4, for which the entries for the “fold weaker interaction than with WT ASCC3^1-22” value in the experiment with ASCC3^1-22 peptide R5G and with ASCC3^1-22 peptide R5L were approximately 11 fold and approximately 8 fold, respectively. In addition, the “fold reduced affinity compared to WT ASCC3^1-22” value with ASCC3^1-22 peptide R5H and with ASCC3^1-22 peptide R5C was more than 20 fold throughout.

As for B5, the binding result in experiment [5] is listed as “binds”.

As to B6, in [6], the binding result is reported as “binds”.

B7 had a Kd with ASCC2^1-434 [3] of 3.8 nM.

In the case of B8, binding in the experiment with ASCC2^1-434 [3] was characterised by a dissociation constant (Kd) of 47.7 nM.
